Results from paper PMC6431256 (Biochemistry, 2018).
Non-standard residues stand in square brackets, D forms with d. No end group written: not given here. pT = C[C@@H](OP(=O)(O)O)[C@H](N)C(=O)O; pS = N[C@@H](COP(=O)(O)O)C(=O)O

Legend:
[1] = target: Pin1 WW domain (Pin1WW, residues 1–41) (human, UniProt Q13526 1-41); test: NMR titration
full-length Pin1 = full-length Pin1 (human, UniProt Q13526 1-163); test: NMR titration
Sequence of full-length Pin1 (Q13526 whole entry): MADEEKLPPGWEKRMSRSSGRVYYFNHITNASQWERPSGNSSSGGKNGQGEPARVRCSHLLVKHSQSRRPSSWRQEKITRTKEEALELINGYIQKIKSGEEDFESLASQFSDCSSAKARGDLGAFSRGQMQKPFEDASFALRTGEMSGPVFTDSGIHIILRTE

Sequence of Pin1 WW domain (Pin1WW, residues 1–41) (Q13526 1-41): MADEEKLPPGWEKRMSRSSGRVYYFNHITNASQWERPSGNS

Kd [1] | Kd (full-length Pin1) | Binder
890 µM | 500 µM | KKAVK[pS]PAKAKAW [histone H1.1 phosphopeptide KKAVKpSPAKAKAW]
111 µM | 180 µM | KATGAA[pT]PKKSAKW [histone H1.4 phosphopeptide KATGAApTPKKSAKW]
